No end group written: not given here.
Assays:
[1] = biological target: HLA-DR molecule encoded by the allele DRB1*0301 (human); assay: competition ELISA vs biotinylated MT 2-16
[2] = biological target: HLA-DR molecule encoded by the allele DRB1*0101 (human); assay: competition ELISA vs biotinylated HA 306-318
[3] = biological target: HLA-DR molecule encoded by the allele DRB1*0401 (human); assay: competition ELISA vs biotinylated HA 306-318
[4] = biological target: HLA-DR molecule encoded by the allele DRB1*0701 (human); assay: competition ELISA vs biotinylated YKL
[5] = biological target: T1, HLA-DR molecule encoded by the allele DRB1*1301 (human); assay: competition ELISA vs biotinylated B1 21-36
T1 chain 1: not shown
T1 chain 2: not shown

[6] = biological target: HLA-DR molecule encoded by the allele DRB1*1101 (human); assay: competition ELISA vs biotinylated HA 306-318
[7] = biological target: HLA-DR molecule encoded by the allele DRB5*0101 (human); assay: competition ELISA vs biotinylated HA 306-318
[8] = biological target: T2, HLA-DR molecule encoded by the allele DRB4*0101 (human); assay: competition ELISA vs biotinylated E2/E168
T2 chain 1: not shown
T2 chain 2: not shown

[9] = biological target: HLA-DR molecule encoded by the allele DRB1*1501 (human); assay: competition ELISA vs biotinylated A3 152-166
[10] = biological target: T3, HLA-DR molecule encoded by the allele DRB3*0101 (human); assay: competition ELISA vs biotinylated Lol 191-210
T3 chain 1: not shown
T3 chain 2: not shown

[11] = biological target: T1, HLA-DR molecule encoded by the allele …; assay: competition ELISA, nonbiotinylated peptide vs its biotinylated form

With VPVEPDKVEEANKGE (modifications not checked) [Nef10.5 peptide (positions 146-160 of the HIV-1 Nef protein, Bru strain), P03406 146-160] the IC50 [1] was 2500 nM, the IC50 [2] was 550 nM and the IC50 [3] was 2000 nM.

In the case of FHHVARELHPEYFKN (modifications not checked) [Nef13.6 peptide (positions 191-205 of the HIV-1 Nef protein, Bru strain), P03406 191-205], the IC50 [4] is reported as 2500 nM, the IC50 [1] is reported as 700 nM and the IC50 [5] is reported as 3000 nM. For the same binder, the IC50 [6] was 550 nM and the IC50 [7] was 8000 nM.

With DLSHFLKEKGGLEGL (modifications not checked) [Nef5 peptide (positions 86-100 of the HIV-1 Nef protein, Bru strain), P03406 86-100] the IC50 [2] was 6000 nM and the IC50 [7] was 8000 nM.

Binder LTFGWCYKLVPVEPDKVEEANKGENTSLLHPV (modifications not checked) [Nef10 peptide (positions 137-168 of the HIV-1 Nef protein, Bru strain), P03406 137-168] has an IC50 [4] of 65 nM, an IC50 [8] of 55 nM and an IC50 [1] of 175 nM. It also gave an IC50 [9] of 1250 nM, an IC50 [2] of 650 nM and an IC50 [3] of 150 nM. The IC50 [6] was 45 nM, the IC50 [7] was 250 nM and the IC50 [10] was 3500 nM.

TQGYFPDWQNYTPGPG (modifications not checked) [Nef8 peptide (positions 117-132 of the HIV-1 Nef protein, Bru strain), P03406 117-132] gave an IC50 [3] of 8000 nM and an IC50 [10] of 120 nM.

LEKHGAITSSNTAATNAACAWLEAQEEEEVGFPVT (modifications not checked) [Nef3 peptide (positions 37-71 of the HIV-1 Nef protein, Bru strain), P03406 37-71] gave an IC50 [4] of 3000 nM, an IC50 [8] of 8000 nM and an IC50 [2] of 2500 nM. For the same binder, the IC50 [3] was 70 nM and the IC50 [6] was 2000 nM.

With LIHSQRRQDILDLWI (modifications not checked) [Nef6 peptide (positions 100-114 of the HIV-1 Nef protein, Bru strain), P03406 100-114] the IC50 [8] was 1750 nM, the IC50 [9] was 1750 nM and the IC50 [6] was 3000 nM.

DKVEEANKGENTSLL (modifications not checked) [Nef10.6 peptide (positions 151-165 of the HIV-1 Nef protein, Bru strain), P03406 151-165] was tested, and the IC50 [7] was 1500 nM.

Binder PAADGVGAASRDLEK (modifications not checked) [Nef2 peptide (positions 25-39 of the HIV-1 Nef protein, Bru strain), P03406 25-39] has an IC50 [1] of 4250 nM.

For TERVRLVTRHIYNREE (not fully specified) [B1 21-36 peptide, nonbiotinylated], the IC50 [11] was 330 nM.

For FGWCYKLVPVEPDKV (modifications not checked) [Nef10.2 peptide (positions 139-153 of the HIV-1 Nef protein, Bru strain), P03406 139-153], the IC50 [4] was 120 nM, the IC50 [8] was 605 nM and the IC50 [2] was 85 nM. The IC50 [3] was 250 nM, the IC50 [6] was 250 nM and the IC50 [7] was 900 nM.

In the case of EANKGENTSLLHPVSLHGMDDPEREVLEWRF (modifications not checked) [Nef11 peptide (positions 155-185 of the HIV-1 Nef protein, Bru strain), P03406 155-185], the IC50 [4] is reported as 3750 nM, the IC50 [8] is reported as 450 nM and the IC50 [9] is reported as 50 nM. For the same binder, the IC50 [2] was 2000 nM, the IC50 [6] was 3000 nM and the IC50 [7] was 3000 nM.

With EWRFDSRLAFHHVAREL (modifications not checked) [Nef13 peptide (positions 182-198 of the HIV-1 Nef protein, Bru strain), P03406 182-198] the IC50 [4] was 150 nM, the IC50 [8] was 6330 nM and the IC50 [1] was 55 nM. The IC50 [5] was 750 nM, the IC50 [2] was 5000 nM and the IC50 [3] was 3250 nM. For the same binder, the IC50 [6] was 48 nM, the IC50 [7] was 10 nM and the IC50 [10] was 250 nM.

Work on WIYHTQGYFPDWQNYT (modifications not checked) [Nef7 peptide (positions 113-128 of the HIV-1 Nef protein, Bru strain), P03406 113-128] yielded an IC50 [4] of 4000 nM, an IC50 [9] of 9000 nM and an IC50 [10] of 75 nM.

Binder GKWSKSSVVGWPTVR (modifications not checked) [Nef1.1 peptide (positions 3-17 of the HIV-1 Nef protein, Bru strain), P03406 3-17] has an IC50 [4] of 48 nM, an IC50 [5] of 3000 nM and an IC50 [9] of 150 nM. The IC50 [2] was 1250 nM, the IC50 [3] was 700 nM and the IC50 [6] was 1750 nM.

Work on GVRYPLTFGWCYKLVP (modifications not checked) [Nef9 peptide (positions 132-147 of the HIV-1 Nef protein, Bru strain), P03406 132-147] yielded an IC50 [4] of 5500 nM, an IC50 [9] of 1500 nM and an IC50 [2] of 8.5 nM. The IC50 [7] was 8000 nM.

With WRFDSRLAFHHVARE (modifications not checked) [Nef13.3 peptide (positions 183-197 of the HIV-1 Nef protein, Bru strain), P03406 183-197] the IC50 [4] was 900 nM, the IC50 [1] was 567 nM and the IC50 [5] was 250 nM. For the same binder, the IC50 [6] was 11 nM, the IC50 [7] was 15 nM and the IC50 [10] was 5000 nM.

For SSVVGWPTVRERMRR (modifications not checked) [Nef1.2 peptide (positions 8-22 of the HIV-1 Nef protein, Bru strain), P03406 8-22], the IC50 [5] was 700 nM, the IC50 [9] was 200 nM and the IC50 [6] was 7500 nM.

WCYKLVPVEPDKVEE (modifications not checked) [Nef10.3 peptide (positions 141-155 of the HIV-1 Nef protein, Bru strain), P03406 141-155] showed an IC50 [4] of 250 nM, an IC50 [8] of 1030 nM and an IC50 [2] of 850 nM. The IC50 [3] was 250 nM, the IC50 [6] was 350 nM and the IC50 [7] was 1500 nM.

PTVRERMRRAEPAAD (modifications not checked) [Nef1.4 peptide (positions 14-28 of the HIV-1 Nef protein, Bru strain), P03406 14-28] gave an IC50 [5] of 750 nM, an IC50 [2] of 1400 nM and an IC50 [6] of 1250 nM.

Work on LTFGWCYKLVPVEPD (modifications not checked) [Nef10.1 peptide (positions 137-151 of the HIV-1 Nef protein, Bru strain), P03406 137-151] yielded an IC50 [4] of 650 nM, an IC50 [8] of 2200 nM and an IC50 [2] of 150 nM. For the same binder, the IC50 [3] was 2000 nM, the IC50 [6] was 95 nM and the IC50 [7] was 4500 nM.

With LEWRFDSRLAFHHVA (modifications not checked) [Nef13.2 peptide (positions 181-195 of the HIV-1 Nef protein, Bru strain), P03406 181-195] the IC50 [4] was 933 nM, the IC50 [1] was 73 nM and the IC50 [5] was 350 nM. The IC50 [6] was 18 nM, the IC50 [7] was 6 nM and the IC50 [10] was 60 nM.

Binder REVLEWRFDSRLAFH (modifications not checked) [Nef13.1 peptide (positions 178-192 of the HIV-1 Nef protein, Bru strain), P03406 178-192] has an IC50 [4] of 350 nM, an IC50 [1] of 125 nM and an IC50 [5] of 867 nM. For the same binder, the IC50 [6] was 8 nM and the IC50 [10] was 28 nM.

For AAVDLSHFLKEKGGL (modifications not checked) [Nef4.7 peptide (positions 83-97 of the HIV-1 Nef protein, Bru strain), P03406 83-97], the IC50 [2] was 500 nM, the IC50 [6] was 7500 nM and the IC50 [7] was 3250 nM.

With VGWPTVRERMRRAEP (modifications not checked) [Nef1.3 peptide (positions 11-25 of the HIV-1 Nef protein, Bru strain), P03406 11-25] the IC50 [5] was 700 nM.

ERMRRAEPAADGVGA (modifications not checked) [Nef1.5 peptide (positions 18-32 of the HIV-1 Nef protein, Bru strain), P03406 18-32] gave an IC50 [2] of 2750 nM.

With YKLVPVEPDKVEEAN (modifications not checked) [Nef10.4 peptide (positions 143-157 of the HIV-1 Nef protein, Bru strain), P03406 143-157] the IC50 [4] was 2250 nM, the IC50 [8] was 1730 nM and the IC50 [1] was 1470 nM. For the same binder, the IC50 [2] was 9000 nM and the IC50 [3] was 2750 nM.

LAFHHVARELHPEYF (modifications not checked) [Nef13.5 peptide (positions 189-203 of the HIV-1 Nef protein, Bru strain), P03406 189-203] showed an IC50 [4] of 250 nM, an IC50 [1] of 1470 nM and an IC50 [5] of 600 nM. For the same binder, the IC50 [6] was 8 nM and the IC50 [7] was 600 nM.

Binder DPEREVLEWRFDSRLA (modifications not checked) [Nef12 peptide (positions 175-190 of the HIV-1 Nef protein, Bru strain), P03406 175-190] has an IC50 [4] of 700 nM, an IC50 [8] of 275 nM and an IC50 [1] of 3500 nM. The IC50 [9] was 13 nM, the IC50 [3] was 2500 nM and the IC50 [6] was 125 nM. For the same binder, the IC50 [10] was 145 nM.

For MGGKWSKSSVVGWPTVRERMRRAEPAADGVGAASRD (modifications not checked) [Nef1 peptide (positions 1-36 of the HIV-1 Nef protein, Bru strain), P03406 1-36], the IC50 [4] was 40 nM, the IC50 [8] was 2500 nM and the IC50 [5] was 325 nM. It also gave an IC50 [9] of 40 nM, an IC50 [2] of 700 nM and an IC50 [3] of 250 nM. For the same binder, the IC50 [6] was 550 nM and the IC50 [7] was 400 nM.

With SRLAFHHVARELHPE (modifications not checked) [Nef13.4 peptide (positions 187-201 of the HIV-1 Nef protein, Bru strain), P03406 187-201] the IC50 [4] was 225 nM, the IC50 [5] was 350 nM and the IC50 [6] was 6 nM. It also gave an IC50 [7] of 300 nM.

Reference: patent publication US20040115622A1
